Data: PMC3471918 (PLoS ONE, 2012)
Values belong to the molecule of their own block, whether it stands above or below them.

Experiments:
Assay in all cases: AUC; sedimentation velocity, 4°C, 40,000 rpm, 50 mM Tris pH 7.4, absorbance at 280 nm, c(s,ff0) distributions by SEDFIT corrected to 20,w; monomer, dimer and higher oligomers
[1] = target: cysteine-free rat insulin degrading enzyme (all twelve cysteines converted to serines) (rat) (UniProt P35559)
[2] = target: rat insulin degrading enzyme C904S (rat) (UniProt P35559)
[3] = target: the molecule itself

- fold decrease in dimer content against wild type IDE [1]: 2 fold
Molecule: cysteine-free rat insulin degrading enzyme (all twelve cysteines converted to serines) (from UniProt P35559 1-1019)

- stoichiometry N [2]: 2
Molecule: rat insulin degrading enzyme C904S (from UniProt P35559 1-1019)

B1: rat insulin degrading enzyme (IDE), wild type (enzyme, UniProt P35559 1-1019, looked up)
chain: MNNPAIQRIEDHIVKSPEDKREYRGLELANGIKVLLISDPTTDKSSAALDVHIGSLSDPPNIPGLSHFCEHMLFLGTKKYPKENEYSQFLSEHAGSSNAFTSGEHTNYYFDVSHEHLEGALDRFAQFFLCPLFDASCKDREVNAVDSEHEKNVMNDAWRLFQLEKATGNPKHPFSKFGTGNKYTLETRPNQEGIDVREELLKFHSTYYSSNLMAICVLGRESLDDLTNLVVKLFSEVENKNVPLPEFPEHPFQEEHLKQLYKIVPIKDIRNLYVTFPIPDLQQYYKSNPGHYLGHLIGHEGPGSLLSELKSKGWVNTLVGGQKEGARGFMFFIINVDLTEEGLLHVEDIILHMFQYIQKLRAEGPQEWVFQECKDLNAVAFRFKDKERPRGYTSKIAGKLHYYPLNGVLTAEYLLEEFRPDLIDMVLDKLRPENVRVAIVSKSFEGKTDRTEQWYGTQYKQEAIPEDVIQKWQNADLNGKFKLPTKNEFIPTNFEILALEKDATPYPALIKDTAMSKLWFKQDDKFFLPKACLNFEFFSPFAYVDPLHCNMAYLYLELLKDSLNEYAYAAELAGLSYDLQNTIYGMYLSVKGYNDKQPILLKKITEKMATFEIDKKRFEIIKEAYMRSLNNFRAEQPHQHAMYYLRLLMTEVAWTKDELKEALDDVTLPRLKAFIPQLLSRLHIEALLHGNITKQAALGVMQMVEDTLIEHAHTKPLLPSQLVRYREVQLPDRGWFVYQRRNEVHNNCGIEIYYQTDMQSTSENMFLELFCQIISEPCFNTLRTKEQLGYIVFSGPRRANGIQGLRFIIQSEKPPHYLESRVEAFLITMEKAIEDMTEEAFQKHIQALAIRRLDKPKKLSAECAKYWGEIISQQYNYDRDNIEVAYLKTLSKDDIIKFYKEMLAVDAPRRHKVSVHVLAREMDSCPVVGEFPSQNDINLSEAPPLPQPEVIHNMTEFKRGLPLFPLVKPHINFMAAKL
notes: Insulin degrading enzyme, rat; EC 3.4.24.56; also called wild type IDE; native enzyme; source: Sf9 insect cells, purified (HIS-select Ni-NTA agarose)
- stoichiometry N [3]: 2
